This note sets out measurements from article PMC7607744 (2020).

This assay has as its target T1, CD138pep (also: FITC-labeled, site not given here).
T1 chain: RKRLQVQLSIRT-NH2
Put plainly: flow cytometry binding to H929 cells. (In general: In flow cytometry, cells or beads pass a laser one at a time.)

No end group written: not given here.

B1: CD138 (Syndecan-1) (protein)
chain: QIVATNLPPEDQDGSGDDSDNFSGSGAGALQDITLSQQTPSTWKDTQLLTAIPTSPEPTGLEATAASTSTLPAGEGPKEGEAVVLPEVEPGLTAREQEATPRPRETTQLPTTHLASTTTATTAQEPATSHPHRDMQPGHHETSTPAGPSQADLHTPHTEDGGPSATERAAEDGASSQLPAAEGSGEQDFTFETSGENTAVVAVEPDRRNQSPVDQGATGASQGLLDRKEVLG
In general, Kd refers to the free concentration of one partner at which half of the binding sites on the other are occupied at equilibrium, for simple one-to-one binding. In turn, B1 had a Kd of 3.1 µM.
